Results published in publication PMC12325699, “Utilizing native nanodiscs to isolate active TRPC3 channels and expand structural analysis capabilities” (Scientific Reports, 2025).

Molecular target: the molecule itself
Experiment: negative-stain electron microscopy; purified TRPC3 at 0.1 mg/mL, extracted from Expi293F membranes with DDM or with DDDG, on a TEM grid, stained with 1% uranyl acetate

B1: canonical transient receptor potential channel 3 (TRPC3), TRPC3-YFP-3xFLAG construct (natural protein, human, UniProt Q13507-3 1-848, looked up)
chain: MEGSPSLRRMTVMREKGRRQAVRGPAFMFNDRGTSLTAEEERFLDAAEYGNIPVVRKMLEESKTLNVNCVDYMGQNALQLAVGNEHLEVTELLLKKENLARIGDALLLAISKGYVRIVEAILNHPGFAASKRLTLSPCEQELQDDDFYAYDEDGTRFSPDITPIILAAHCQKYEVVHMLLMKGARIERPHDYFCKCGDCMEKQRHDSFSHSRSRINAYKGLASPAYLSLSSEDPVLTALELSNELAKLANIEKEFKNDYRKLSMQCKDFVVGVLDLCRDSEEVEAILNGDLESAEPLEVHRHKASLSRVKLAIKYEVKKFVAHPNCQQQLLTIWYENLSGLREQTIAIKCLVVLVVALGLPFLAIGYWIAPCSRLGKILRSPFMKFVAHAASFIIFLGLLVFNASDRFEGITTLPNITVTDYPKQIFRVKTTQFTWTEMLIMVWVLGMMWSECKELWLEGPREYILQLWNVLDFGMLSIFIAAFTARFLAFLQATKAQQYVDSYVQESDLSEVTLPPEIQYFTYARDKWLPSDPQIISEGLYAIAVVLSFSRIAYILPANESFGPLQISLGRTVKDIFKFMVLFIMVFFAFMIGMFILYSYYLGAKVNAAFTTVEESFKTLFWSIFGLSEVTSVVLKYDHKFIENIGYVLYGIYNVTMVVVLLNMLIAMINSSYQEIEDDSDVEWKFARSKLWLSYFDDGKTLPPPFSLVPSPKSFVYFIMRIVNFPKCRRRRLQKDIEMGMGNSKSRLNLFTQSNSRVFESHSFNSILNQPTRYQQIMKRLIKRYVLKAQVDKENDEVNEGELKEIKQDISSLRYELLEDKSQATEELAILIHKLSEKLNPSMLRCE
notes: a TEV site stands between the tags and TRPC3 by the plasmid's name; The protein was purified by its FLAG tag; no TEV cleavage step is described, so the tags were probably still on the protein in the electron microscopy; also called TRPC3–3 x FLAG–YFP; 3xFLAG-YFP; source: Expi293F, transiently transfected; membranes extracted with DDM or DDDG
B1 was tested, and the “stoichiometry N” value was 4.
